# Experimental data taken from the DeepSol protein solubility set.
# Test: soluble on expression in E. coli; label from the status in PepcDB or PDB records
row,Sequence,soluble on expression in E. coli
1,MGSSHHHHHHSSGLVPRGSHMDRKTEFIECTNAFNEKPKKGIPMLIEKGFIASDSDKDIAEFLFNNNNRMNKKTIGLLLCHPDKVSLLNEYIRLFDFSGLRVDEAIRILLTKFRLPGESQQIERIIEAFSSAYCENQDYDPSKISDNAEDDISTVQPDADSVFILSYSIIMLNTDLHNPQVKEHMSFEDYSGNLKGCCNHKDFPFWYLDRVYCSIRDKEIVMPEEHHGNE,soluble
2,MGSSHHHHHHSSGLVPRGSHMEPAATTYGTSTSVGVHNAYEKEKYRYFADALDSGAALLELDLWSNALGRSWRVSHSNPLGNNSNCEGAANASELRTKSRDQDFAGCLSDMRAWHDAHPGHRPILLKIEMKDGFNAKGGRGPAEFDALIRQKLGDAVYGPGDLTGGHATADEAVRAGGWPSRADLAGKFLFELIPGTVEEKNPFDKLWTDVEYAGHLKDLAAQGKLAQSTAFPAVHGAAPGDPRERYADPALRPWFVVFDGDAATYLNGSIDTSWYDTRHYLLIMTDAHNVPPVIDGTHPTEAEALARVRQLAAAHASFATADWYPLPSVLKTVVPRGA,soluble
3,MGSSHHHHHHSSGLVPRGSHMGTASNGSTQQLPQTIIIGVRKGGTRALLEMLSLHPDVAAAENEVHFFDWEEHYSQGLGWYLTQMPFSSPHQLTVEKTPAYFTSPKVPERIHSMNPTIRLLLILRDPSERVLSDYTQVLYNHLQKHKPYPPIEDLLMRDGRLNLDYKALNRSLYHAHMLNWLRFFPLGHIHIVDGDRLIRDPFPEIQKVERFLKLSPQINASNFYFNKTKGFYCLRDSGKDRCLHESKGRAHPQVDPKLLDKLHEYFHEPNKKFFKLVGRTFDWH,soluble
4,MGSSHHHHHHSSGLVPRGSHMLEDPMGTLIRATTLSRLSFIDVVNDNGFYQFEKPKEGRKYVATLDCSEGRGQDYHALQIIDITEFPYKQVAVYHSNTTSHFILPDIVFKYLMMYNECPVYIELNSTGVSIAKSLAMDLEYDNIICDSFIDLGMKQSKRSKAMGCSALKDLIEKDKLIINHKGTIQELRTFSEKGVSWAAEEGFHDDLVMSLVIFGWLTTQEKFAEYAGKDE,soluble
5,MGSSHHHHHHSSGLVPRGSHMPLYYRSIIEEHMAVRKHVGIFDVSHMGDVTVSGKDASAFLDHMFPTKVSNLKNGECVYTAFLNDSGLMIDDTIVYRMGEDSYFFVPNAGTTEKIYRWVSDHSAGYSVKIENVSNRISSIALQGPESEEVLNELGFSYPGYFKFQYVSGKYMNAITGKDQIIISGTGYTGEKGVEFIIPNEHAVELWKKLLEAINKRNGLPAGLGARDTLRMEKGMLLSGHDFNEDRDPYEASVSFIVNNDEDFVGKKNLEIRRRSDHEIFRGFVLSDGIPRNGNPIKAGGKRVGTVTSGTISPVLNKGIALGYIDKAYSKENTEVMIEIRSVDHKAVVTKPRIVK,soluble
6,MGSSHHHHHHSSGLVPRGSHMTPDDIAGFYAKRADLDLDNYIELDFDFECAGDPHEAAAHLCSEQSTAQWRRVGFDEDFRPRFAAKVLELSAEPRPSGFSVPVECAARGPVHACRVTIAHPHGNFGAKIPNLLSAVCGEGVFFSPGIPLIRLQDIRFPEPYLAAFDGPRFGIAGVRERLQAFDRPIFFGVIKPNIGLPPQPFAELGYQSWTGGLDIAKDDEMLADVDWCPLAERAALLGDACRRASAETGVPKIYLANITDEVDRLTELHDVAVANGAGALLINAMPVGLSAVRMLRKHATVPLIAHFPFIAAFSRLANYGIHSRVMTRLQRLAGFDVVIMPGFGPRMMTPEHEVLDCIRACLEPMGPIKPCLPVPGGSDSAATLENVYRKVGSADFGFVPGRGVFGHPMGPAAGATSIRQAWDAIAAGIPVPDHAASHPELAAALRAFGGR,soluble
7,MGSSHHHHHHSSGLVPRGSHMYLINQNGWIEVICGSMFSGKSEELIRRVRRTQFAKQHAIVFKPCIDNRYSEEDVVSHNGLKVKAVPVSASKDIFKHITEEMDVIAIDEVQFFDGDIVEVVQVLANRGYRVIVAGLDQDFRGLPFGQVPQLMAIAEHVTKLQAVCSACGSPASRTQRLIDGEPAAFDDPIILVGASESYEPRCRHCHAVPTKQR,soluble
8,MGSSHHHHHHSSGLVPRGSSTYRDIVVKKEDGFTQIVLSTRSTEKNALNTEVIKEIVNALNSAAADDSKLVLFSAAGSVFCCGLDFGYFVKHLRNNRNTASLEMVDTIKNFVNTFIQFKKPIVVSVNGPAIGLGASILPLCDLVWANEKAWFQTPYTTFGQSPDGCSSITFPKMMGKASANEMLIAGRKLTAREACAKGLVSQVFLTGTFTQEVMIQIKELASYNPIVLEECKALVRCNIKLELEQANERECEVLRKIWSSAQGIESMLKIPLLGYKAAFPPRKTQNDQRW,soluble
9,MGSSHHHHHHSSGTIEGRMIRLTDNRPIGFIDSGVGGLTVVKEALKQLPNENILFVGDTARCPYGPRPAEQVIQYTWEMTDYLVEQGIKMLVIACNTATAVALEEIKAALSIPVIGVILPGTRAAVKKTQNKQVGIIGTIGTVKSQAYEKALKEKVPELTVTSLACPKFVSVVESNEYHSSVAKKIVAETLAPLTTKKIDTLILGCTHYPLLRPIIQNVMGENVQLIDSGAETVGEVSMLLDYFNLSNSPQNGRTLCQFYTTGSAKLFEEIAEDWLGIGHLNVEHIELGGK,soluble
10,MGSVEIPTKVLTNTSSQLKMPVVGMGSAPDFTCKKDTKDAIIEAIKQGYRHFDTAAAYGSEQALGEALKEAIELGLVTRDDLFVTSKLWVTENHPHLVIPALQKSLKTLQLDYLDLYLIHWPLSSQPGKFSFPIDVADLLPFDVKGVWESMEESLKLGLTKAIGVSNFSVKKLENLLSVATVLPAVNQVEMNLAWQQKKLREFCNAHGIVLTAFSPVRKGASRGPNEVMENDMLKEIADAHGKSVAQISLRWLYEQGVTFVPKSYDKERMNQNLRIFDWSLTKEDHEKIAQIKQNRLIPGPTKPGLNDLYDD,soluble
11,MGTHSGHERNGESARGGALQRLERRLAAAWAEQDAYQIEQLAGMIYDRLVRSDPSAAATVLEQNAHRLAVAGKPAEAAELATRLIRHWRELEQRPFYLARLQQMVLEPLQALSGVEAARARTMVLEAVLAWKRASATVDTEEAAPAELAPVQDALVDAYVLCGEWARAQYQVVCRGGPAERDLAFIDEQLGPHLANDVERMLARTRLVLFYVLAGNLKAGRALVEEIQRKHPTAPMTNFVVILMQVLERARNVDSSKRRLLRNFCDDLKRVYHWAFSLDPELDAMLDDVLKAQGL,not soluble
12,MGTKIIGTGVYLPKNVLTNFDLEKIVDTSDEWITTRTGIKERRIAKEETITYMATQAAKEALREANLSPEELDLIILATLTPQKRFPSTACLVQAQLKAKGVYAFDISAACSGFIYALDIADSFIKSGKAKNVLVIGAEKLSEAVDWEDRSTCVLFGDGAGAVVVTRSEDKSDILATRMYAEGSLEELLHADNCGYIRMKGRELFKVAVRSMEEVCREVLEKAGVKPEEVSLVIPHQANVRIINALAEKLNIPKEKVFVNIQKYGNTSAASIPIALHEAIKEGKVKRGDLILMTAMGGGLTWGAVLLRY,soluble
13,MGTKLSVSLEGASTPETAPRVDRPPTFDPQYGFERPRKVREMKATWEEMEQWKLKPAQRDYCAHHLISLMKCQTQNAPFAGHACDGERGAWDKCEYDDHIMRIKEFERERRLLQRQARKEATA,not soluble
14,MGTRCAVTPELRFVLAFPDVYEVGMSHLGLQILYGVLNTLDGVAAERAYAPWPDREAQLRAEGIPLATLESGTSLDRADIVGFTLQYELSYTNILNMLDLAGIPLLASERDERHPLIIGGGPCACNPEPLADFFDAFLLGDGEEAVIEIAEAFRAWKRAGGARSGLLERLAGIAGVYVPSFFAVRYGDNNRIAAVEPLRPDYGPVKRRFLAELEPAAYPTAPVVPFLKTIHDRVSVEISRGCTRGCRFCQAGYLYRPVRERSPEKILALVEETLRATGYDEISLLSLSTGDYGCLTPLLTELMARYASERIAVSLPSMRVGSLNDELVEAIRTVRKTGFTLAPEAGSERLRRVINKGISEEDLLRNAFEAYSHGWRLIKLYFMIGLPGETEEDLHGIVELARKVKMEGRRAGSGGEVNVSVSTFVPKAHTPFQWEPQIPVGEILEKQGLLRRELRARKLVFKWHDAPLSFMEGVFARGDRRLGAALRRAWELGCRFDGWGDRFDEAAWRTAFEETGIDPAFYHRRREPDEVLPWGHLDFGVTREFLLRELELSRQGAATEDCRTGRCTGCGVCDFSQVRLRLADDGLEHHHHHH,not soluble
15,MGTRRDVRQEMLDDVQKKLMSLANSSEGKVDKVLMRNLFIGHFHTPKNQRHEVLRLMGSILGVRREEMEQLFHDDQGSVTRWMTGWLGGGSKSVPNTPLRPNQQSVVNSSFSELFVKFLETESHPSIPPPKLSVHDMKPLDSPGRRKRDTNAPESFKDTAESRSGRRTDVNPFLAPRSAAVPLINPAGLGPGGPGIFFLEHHHHHH,not soluble
16,MGTTSSQSKTLYQKLYDAHIVHEAPNETPLLYIDRHLVHEVTSPQAFDGLRAMGRPVRQPGKTFATMDHNVSTQTKDINASGEMARIQMQELIKNCAEFGVSLYDLNHPFQGIVHVIGPEQGMTLPGMTIVCGDSHTATHGAFGSLAFGIGTSEVEHVLATQTLKQGRAKTMRIEVNGTVGAGITAKDIVLAIIGKTGSAGGTGHVVEFCGSAIEALSMEGRMTLCNMAIEMGAKAGLVAPDDTTFAYLKGRQFAPTGEQWEQGVAYWRTLKSDADAQFDTIVTLDAADIAPQVTWGTNPGQVIAVNQIIPAPESFSDPVERASAEKALAYMDLRPGIKLTEVAIDKVFIGSCTNSRIEDLRAAAAIAQGRKVAKGVQAIVVPGSGPVKAQAEAEGLDKIFIAAGFEWRLPGCSMCLAMNNDRLEPGERCASTSNRNFEGRQGRGGRTHLVSPAMAAAAAVSGHFADVRELSATTH,not soluble
17,MGVALAAMCLMSAQAQRRNEIQVPNLNGYTTLKCDFHMHSVFSDGLVWPTVRVDEAYREGLDAISLTEHIEYRPHKKDIIADHNRSYELSQKQAKKLGILLIRGSEITRSMPPGHFNAIFLNDSNPLEQKAYKDAFNEAKKQGAFIFWNHPGWARQQPDSTLWWPEHTQLYNDGCMHGIEVANGGLFMPEAIQWCLDKNLTMIGTSDIHQPIQTDYDFSKGEHRTMTFVFAKERSPEGIREALDNRRTAVYYRELVIGREEILRPFFEKCVDIKEVKRTEKEVTFSVMNATDLVLKLKKTAHDPSLVYFREMTLKPHTQHTISVKFDNGIKGGDCNFEVTNFIVAPDKGLDYTIKL,not soluble
18,MGWCITVVHNTKWKAPPDTHIKCNYDAGFNVQNLDSTARWIIRNHDGIAQHWGSLQLDNTSTPLEAETKALLAALQQTWIRGYLRVIMEGDCETLTNLVSGSSSHNHLANLLDDIRIWAKKFSNVQFSFVRRGGNKVAHELAKLGCNSTCFYSDSCTLPIWLHQHYCNDFG,soluble
19,MGYNTIPAGKDLPNDIYVAIEIPANASPIKYEIDKDMDALLVDRFMATPMFYPANYGYINNTLADDGDALDVLVITPYPVAPGSVIRARPVGVLKMSDEAGGDEKLLAVPHEKLTQLYNDIHDIDDVPQLLKDQIVHFFEHYKDLEKGKWVKVEGWENADAARAAIVKSAAAYKG,soluble
20,MHDAATSMPPQAPSTWADYLAGYRWRGQGEGCSAATVHRLEAARRPTLFVKQEVLSAHAELPAEIARLRWLHGAGIDCPQVLNETQSDGRQWLLMSAMPGDTLSALAQRDELEPERLVRLVAAALRRLHDLDPAACPFDHRLERRLDTVRQRVEAGLVDEADFDDDHRGRSATELYRLLLDRRPAVEDLVVAHGDACLPNLLAEGRRFSGFIDCGRLGVADRHQDLALAARDIEAELGAAWAEAFLVEYGGDIDGERLAYFRLLDEFF,soluble
